IntAct's records for PubMed 24325460

B1: Isocitrate dehydrogenase [NADP] (Bacillus subtilis), P39126 (parent)
chain: MAQGEKITVSNGVLNVPNNPIIPFIEGDGTGPDIWNAASKVLEAAVEKAYKGEKKITWKEVYAGEKAYNKTGEWLPAETLDVIREYFIAIKGPLTTPVGGGIRSLNVALRQELDLFVCLRPVRYFTGVPSPVKRPEDTDMVIFRENTEDIYAGIEYAKGSEEVQKLISFLQNELNVNKIRFPETSGIGIKPVSEEGTSRLVRAAIDYAIEHGRKSVTLVHKGNIMKFTEGAFKNWGYELAEKEYGDKVFTWAQYDRIAEEQGKDAANKAQSEAEAAGKIIIKDSIADIFLQQILTRPNEFDVVATMNLNGDYISDALAAQVGGIGIAPGANINYETGHAIFEATHGTAPKYAGLDKVNPSSVILSGVLLLEHLGWNEAADLVIKSMEKTIASKVVTYDFARLMDGATEVKCSEFGEELIKNMD
partner: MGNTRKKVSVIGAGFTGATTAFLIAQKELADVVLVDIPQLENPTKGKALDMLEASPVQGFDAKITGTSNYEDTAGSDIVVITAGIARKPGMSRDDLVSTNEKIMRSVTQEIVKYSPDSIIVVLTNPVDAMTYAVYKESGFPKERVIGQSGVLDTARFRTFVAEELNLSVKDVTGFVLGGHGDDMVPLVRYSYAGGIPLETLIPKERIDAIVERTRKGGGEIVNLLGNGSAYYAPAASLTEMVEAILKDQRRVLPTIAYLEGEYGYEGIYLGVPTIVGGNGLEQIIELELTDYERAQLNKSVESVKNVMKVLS

Variants of: B1
Settings: with mdh_bacsu mdh

| effect of a mutation on the interaction | Variant |
| --- | --- |
| increasing interaction | MAQGEKITVSNGVLNVPNNPIIPFIEGDGTGPDIWNAASKVLEAAVEKAYKGEKKITWKEVYAGEKAYNKTGEWLPAETLDVIREYFIAIKGPLTTPVGGGIRPLNVALRQELDLFVCLRPVRYFTGVPSPVKRPEDTDMVIFRENTEDIYAGIEYAKGSEEVQKLISFLQNELNVNKIRFPETSGIGIKPVSEEGTSRLVRAAIDYAIEHGRKSVTLVHKGNIMKFTEGAFKNWGYELAEKEYGDKVFTWAQYDRIAEEQGKDAANKAQSEAEAAGKIIIKDSIADIFLQQILTRPNEFDVVATMNLNGDYISDALAAQVGGIGIAPGANINYETGHAIFEATHGTAPKYAGLDKVNPSSVILSGVLLLEHLGWNEAADLVIKSMEKTIASKVVTYDFARLMDGATEVKCSEFGEELIKNMD [S104P] |
